Data from paper PMC3420232.

Columns and labels:
[1] = target: TRAILR1-Fas chimeric receptor (human) (UniProt O00220); assay: radioligand binding; competition on cells: 4x10^5 murine fibroblasts expressing the (chimeric) TRAIL receptor in PFA (PBS, 2% FCS, 0.002% sodium azide), 83 ng/ml 125I-TRAIL with or without unlabeled recombinant human TRAIL (83-5300 ng/ml), 4 hours on ice; cells spun through phthalate oil; 68 kDa used for TRAIL
[2] = target: TRAILR2-Fas chimeric receptor (human) (UniProt O14763); assay: as above
[3] = target: TNFR1-TRAILR1-Fas chimeric receptor (TM1) (human) (UniProt P19438); assay: radioligand binding; equilibrium (saturation) binding on cells: 2x10^5 murine fibroblasts expressing the receptor in PFA (PBS, 2% FCS, 0.002% sodium azide), 125I-TNF 0.25-12.5 ng/ml, 2 h on ice; non-specific binding with 200-fold excess of unlabeled protein; cells spun through phthalate oil; one site binding hyperbola; 51 kDa used for TNF; apparent
[4] = target: TNFR1-TRAILR2-Fas chimeric receptor (TM2) (human) (UniProt P19438); assay: as above

| Substance | IC50 [1] [µM] | IC50 [2] [µM] | Kd [3] [µM] | Kd [4] [µM] |
| --- | --- | --- | --- | --- |
| Flag-tagged recombinant human TRAIL (sTRAIL), unlabeled (from UniProt P50591 95-281) (ligand) | 0.0168 | 0.0055 | – | – |
| 125I-labeled recombinant human TNF (from UniProt P01375 77-233) (ligand) | – | – | 0.225 | 0.071 |
